From US20070224196A1 (ELUSYS THERAPEUTICS, published 2007) come the findings set out here.

The target of assay [1] is T1, human erythrocyte complement receptor 1 (CR1) (human, UniProt P17927 42-2039).
T1 construct: whole, on cells; also called C3b receptor; CD35
The experiment in a line: erythrocyte binding assay, antibody with RBCs in solution, A405 read-out.

Assay [2] has as its target T1, human erythrocyte complement receptor 1 …. The experiment in a line: erythrocyte binding assay (FIGS. 10-13).

T1 sequence (P17927 42-2039): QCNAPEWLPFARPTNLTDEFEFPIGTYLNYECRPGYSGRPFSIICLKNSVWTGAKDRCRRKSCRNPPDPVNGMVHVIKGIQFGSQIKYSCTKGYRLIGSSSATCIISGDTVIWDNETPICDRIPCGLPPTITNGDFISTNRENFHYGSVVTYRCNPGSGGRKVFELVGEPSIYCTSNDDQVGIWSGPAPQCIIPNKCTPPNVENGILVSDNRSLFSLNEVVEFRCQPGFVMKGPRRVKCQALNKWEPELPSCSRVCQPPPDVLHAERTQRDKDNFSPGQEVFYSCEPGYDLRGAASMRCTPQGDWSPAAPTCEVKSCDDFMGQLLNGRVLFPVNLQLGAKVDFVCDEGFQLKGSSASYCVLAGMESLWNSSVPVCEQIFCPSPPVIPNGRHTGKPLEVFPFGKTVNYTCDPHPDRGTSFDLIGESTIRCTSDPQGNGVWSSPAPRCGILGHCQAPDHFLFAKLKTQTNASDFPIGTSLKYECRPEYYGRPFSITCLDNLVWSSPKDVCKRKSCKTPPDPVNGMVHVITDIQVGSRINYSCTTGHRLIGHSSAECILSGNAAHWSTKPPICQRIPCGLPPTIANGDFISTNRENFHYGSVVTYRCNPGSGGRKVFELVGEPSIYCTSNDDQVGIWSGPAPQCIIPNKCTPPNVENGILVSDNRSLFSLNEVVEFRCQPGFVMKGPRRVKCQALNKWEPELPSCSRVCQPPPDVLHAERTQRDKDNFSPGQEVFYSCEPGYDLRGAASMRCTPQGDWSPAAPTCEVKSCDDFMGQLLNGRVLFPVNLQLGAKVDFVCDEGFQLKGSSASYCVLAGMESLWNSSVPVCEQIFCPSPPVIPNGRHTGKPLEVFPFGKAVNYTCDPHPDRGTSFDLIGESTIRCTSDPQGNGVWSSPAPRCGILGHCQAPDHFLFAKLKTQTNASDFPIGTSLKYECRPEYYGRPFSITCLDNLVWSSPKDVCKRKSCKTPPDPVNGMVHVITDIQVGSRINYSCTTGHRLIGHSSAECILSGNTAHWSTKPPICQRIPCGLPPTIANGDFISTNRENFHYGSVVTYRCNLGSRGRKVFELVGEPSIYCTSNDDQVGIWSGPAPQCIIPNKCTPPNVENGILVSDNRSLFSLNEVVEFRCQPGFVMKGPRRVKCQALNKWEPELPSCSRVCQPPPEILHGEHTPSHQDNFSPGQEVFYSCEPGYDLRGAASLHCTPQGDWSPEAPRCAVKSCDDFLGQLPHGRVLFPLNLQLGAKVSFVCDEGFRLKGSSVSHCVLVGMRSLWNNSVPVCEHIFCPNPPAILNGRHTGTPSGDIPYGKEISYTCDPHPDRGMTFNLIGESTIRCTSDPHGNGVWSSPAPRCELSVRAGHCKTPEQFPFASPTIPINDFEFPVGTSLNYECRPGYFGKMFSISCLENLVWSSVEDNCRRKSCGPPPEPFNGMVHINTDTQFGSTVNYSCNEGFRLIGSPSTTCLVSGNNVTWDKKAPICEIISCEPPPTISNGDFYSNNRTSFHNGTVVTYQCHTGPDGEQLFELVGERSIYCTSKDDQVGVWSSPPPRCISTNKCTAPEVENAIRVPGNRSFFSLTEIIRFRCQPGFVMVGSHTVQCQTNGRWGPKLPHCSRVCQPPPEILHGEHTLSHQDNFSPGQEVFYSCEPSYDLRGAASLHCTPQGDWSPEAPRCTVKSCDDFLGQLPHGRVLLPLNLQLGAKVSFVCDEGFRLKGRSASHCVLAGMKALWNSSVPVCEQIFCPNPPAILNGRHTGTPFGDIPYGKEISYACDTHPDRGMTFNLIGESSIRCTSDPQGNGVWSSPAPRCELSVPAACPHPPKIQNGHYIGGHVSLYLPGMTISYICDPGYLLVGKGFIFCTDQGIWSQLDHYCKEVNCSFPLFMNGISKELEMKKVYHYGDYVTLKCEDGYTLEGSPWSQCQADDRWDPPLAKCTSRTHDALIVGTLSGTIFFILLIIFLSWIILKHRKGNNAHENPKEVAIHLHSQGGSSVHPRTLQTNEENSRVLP

B1: E DI VH4/VL2 (antibody, V domains shown)
VH: DVQLQESGPGLVKPSQTLSLTCTVSGYSITSDYAWNWIRQFPGKGLEWIGYISYSGSTSYHPSLKSRISISRDTSKNQFFLQMNSVTTEDTATYYCTTIINYDKYDWYFDVWGQGTTVTVSS
VL: DIVLTQSPASLVVSVRQRATISCRASQSVRTSSYSYIHWYQQKPGQPPKLLIKYASSLESGVPARFSGSGSGTDFTLNISPVEEEDTATYYCQHSWEIPWTFGPGTTVEIK
notes: also called E DI V4/VL2
For B1, in assay [1], the “ng of antibody at A405 0.4” value came out at 30 ng. The “fold reduction of binding compared to the chimeric antibody” value (from here on “fold reduction of binding”) in assay [2] is roughly 10 fold.

B2: E DI VH2/VL1 44H1 (antibody, V domains shown)
VH: DVQLQESGPGLVKPSQTLSLTCTVSGYSMTSDYAWNWIRQFPGKGLEWIGYISYSGSTSYHPSVKSRITISRDTSKNQFFLQMNSVTTEDTATYYCTTIINYDKYDWYFDVWGQGTTVTVSS
VL: DIVLTQSPASLVVSVRQRATISCRASQSVRTSSYSYIHWYQQKPGQPPKLLIYYASSLESGVPARFSGSGSGTDFTLNISPVEEEDTATYYCQHSWEIPWTFGPGTKVEIK
notes: also called immunogenicity-reduced Ab VH2/VL1
As to B2, the “ng of antibody at A405 0.4” value in assay [1] worked out at 12 ng. The “fold reduction of binding” value in assay [2] is roughly 2 fold.

B3: E DI VH1/VL2 (antibody, V domains shown)
VH: DVQLQESGPGLVKPSQTLSLTCTVSGYSMTSDYAWNWIRQFPGKGLEWIGYISYSGSTTYHPSVKSRITISRDTSKNQFFLQMNSVTTEDTATTYCTTIINYDKYDWYFDYWGQGTTVTVSS
VL: DIVLTQSPASLVVSVRQRATISCRASQSVRTSSYSYIHWYQQKPGQPPKLLIKYASSLESGVPARFSGSGSGTDFTLNISPVEEEDTATYYCQHSWEIPWTFGPGTTVEIK
Regarding B3, the “ng of antibody at A405 0.4” value in assay [1] came out at 9 ng. The “fold reduction of binding” value in assay [2] was roughly 10 fold.

B4: E DI VH3/VL1 12H10 (antibody, V domains shown)
VH: DVQLQESGPGLVKPSQTLSLTCTVSGYSMTSDYAWNWIRQFPGKGLEWIGYISYSGSTSYHPSLKSRISISRDTSKNQFFLQMNSVTTEDTATYYCTTIINYDKYDWYFDVWGQGTTVTVSS
VL: DIVLTQSPASLVVSVRQRATISCRASQSVRTSSYSYIHWYQQKPGQPPKLLIYYASSLESGVPARFSGSGSGTDFTLNISPVEEEDTATYYCQHSWEIPWTFGPGTKVEIK
notes: also called immunogenicity-reduced Ab VH3/VL1
Regarding B4, in assay [1], the “ng of antibody at A405 0.4” value is 4 ng.

B5: E DI VH5/VL1 (antibody, V domains shown)
VH: DVQLQESGPGLVKPSQTLSLTCTVTGYSITSDYAWNWIRQFPGKGLEWMGYISYSGSTSYHPSLKSRISISRDTSKNQFFLQMNSVTTEDTATYYCTTIINYDKYDWYFDVWGQGTTVTVSS
VL: DIVLTQSPASLVVSVRQRATISCRASQSVRTSSYSYIHWYQQKPGQPPKLLIYYASSLESGVPARFSGSGSGTDFTLNISPVEEEDTATYYCQHSWEIPWTFGPGTKVEIK
notes: also called immunogenicity-reduced Ab VH5/VL1
Turning to B5, in assay [1], the “ng of antibody at A405 0.4” value was found to be 2 ng.

B6: E DI VH3/VL2 15A12 (antibody, V domains shown)
VH: DVQLQESGPGLVKPSQTLSLTCTVSGYSMTSDYAWNWIRQFPGKGLEWIGYISYSGSTSYHPSLKSRISISRDTSKNQFFLQMNSVTTEDTATYYCTTIINYDKYDWYFDVWGQGTTVTVSS
VL: DIVLTQSPASLVVSVRQRATISCRASQSVRTSSYSYIHWYQQKPGQPPKLLIKYASSLESGVPARFSGSGSGTDFTLNISPVEEEDTATYYCQHSWEIPWTFGPGTTVEIK
notes: also called immunogenicity-reduced Ab VH3/VL2
Regarding B6, the “fold reduction of binding” value in assay [2] is roughly 10 fold.
